{
  "source": "patent US20250051759A1",
  "about": "“METHODS AND MOLECULES FOR RNA INTERFERENCE (RNAi)” (BOEHRINGER INGELHEIM INTERNATIONAL GMBH, priority 2021, published 2025)",
  "molecules": {"B1": {"name": "ARTi-shRNA 6634: ARTi-shRNAmir, antisense RNA UUCGAUUAAAACAUCAUCCGGA (SEQ ID NO: 10), 97 mer SEQ ID NO: 22 (nucleic acid)", "chain": "UGCUGUUGACAGUGAGCGCCCGGAUGAUGUUUUAAUCGAAUAGUGAAGCCACAGAUGUAUUCGAUUAAAACAUCAUCCGGAUGCCUACUGCCUCGGA"}, "B2": {"name": "ARTi-shRNA 6570: ARTi-shRNAmir, antisense RNA UUCGAUAACAAUAUCAUCCGGA (SEQ ID NO: 6), 97 mer SEQ ID NO: 18 (nucleic acid)", "chain": "B1 chain with G29A, U32G, A34U, U66A, A68C, C71U"}, "B3": {"name": "ARTi-shRNA 6786: ARTi-shRNAmir, antisense RNA UUCGUAUACAAUAUCAUCCGGA (SEQ ID NO: 12), 97 mer SEQ ID NO: 24 (nucleic acid)", "chain": "B1 chain with G29A, U32G, A35U, U36A, A64U, U65A, A68C, C71U"}},
  "key": {"RN2 (AML) cells": {"test_system": "RN2 (AML) cells", "experiment": "Competitive proliferation assay", "format": "cell-based, mouse", "conditions": "monitored for 8 days, no endogenous target gene", "experimental": "(§1) The 3 best-performing ARTi-shRNAmirs were analyzed for their effects on proliferation of diverse mouse cell lines originating from different tissues. This experimental step monitors potential off-target effects. Should an off-target, relevant to the proliferative capacity be knocked down, a decrease in cellular fitness would be expected. NIH 3T3 (embryonic fibroblasts), EPP2 (PDAC) and RN2 (AML) cells were transduced with ARTi-shRNAs or validated control shRNAs. Subsequently, the percentage of shRNA expressing cells was monitored via flow cytometry in regular intervals for 8 days in competitive co-culture assays. For competitive proliferation assays, NIH 3T3, EPP2 and RN2 cells were retrovirally transduced with shRNAmir expression plasmids and initial infection levels were determined by flow cytometry based on mCherry expression 4 days post transduction (Day 0). The percentage of infected cells was then further monitored in regular intervals to determine the effects of shRNA expression in the absence of an endogenous target gene for the ARTi-shRNAmirs."}, "[1]": {"test_system": "NIH 3T3, EPP2 and RN2 cells", "experiment": "Competitive proliferation assays, result stated for all cell lines together", "format": "cell-based, mouse", "conditions": "all tested cell lines, competitive co-culture", "experimental": "as §1"}, "EGFR^del19::dsRed::ARTi": {"test_system": "EGFR^del19::dsRed::ARTi", "experiment": "Western blot of doxycycline induced knockdown in PC-9 cells", "format": "cell-based", "conditions": "endogenous EGFR knocked out, doxycycline induced expression", "experimental": "The EGFR^del19::Linker::dsRed::ARTi construct was transduced into EGFR^del19dependent PC-9 cells. The endogenous EGFR gene was then knocked out using CRISPR/Cas9, making the PC-9 cells dependent on EGFR^del19::dsRed::ARTi. PC-9 cell pellets for different genetic backgrounds and treatments were lysed in triton lysis buffer, sonicated, and stored at −80° C. until for protein detection, the pellets were thawed on ice, followed by 15 minutes centrifugation at 13,000 rpm at 4° C. Then, cell lysates were loaded onto a 12% pre-casted SDS-polyacrylamide gel electrophoresis and proteins were transferred onto a nitrocellulose membrane and PDVF-membrane, respectively. Both membranes were probed with the respective primary antibodies overnight. The next day, the secondary antibodies conjugated with fluorescent dye were added and the proteins were detected by the Odyssey detection system."}, "[2]": {"test_system": "NIH 3T3, EPP2 and MR125 cells", "experiment": "Transcriptional profiling (QuantSeq) for off-target effects", "format": "cell-based, mouse", "conditions": "cells expressing ARTi-shRNAs vs empty vector control, no target gene expression", "experimental": "To directly quantify off-target effects of the top 3 ARTi-shRNAs, transcriptome profiling in NIH 3T3, EPP2 and MR125 cells expressing ARTi-shRNAs or empty vector control was performed. For the unbiased identification of ARTi shRNA off-targets NIH-3T3, EPP2 and MR125 cells were retrovirally transduced with shRNAmir expression plasmids and selected for shRNA expression using G418 Sulfate (0.5 mg/mL for EPP2 and NIH 3T3 and 1 mg/mL for MR125, respectively; Gibco). 1.5×106 (NIH 3T3 and EPP2) or 2×106 (MR125) cells were pelleted, washed with PBS, lysed, treated with DNAse I and whole RNA was extracted using magnetic beads (in-house) and a KingFisher Duo Prime Purification System (ThermoFisher). Next generation sequencing libraries were prepared using QuantSeq 3′ mRNA-Seq Library Prep Kit (Lexogen) according to manufacturer's instructions and sequenced on a HiSeq2500 platform (Illumina).\nRefSeq genes and 3′-UTR annotations were prepared from the UCSC table browser (https://genome.ucsc.edu/cgi-bin/hgTables, May 2016). […] Reads were aligned to the GRCm38 primary assembly using Slamdunk v0.2.410 in QuantSeq mode (slamdunk map-5 12-n 100-q) and alignments were filtered to recover multimappers with the acquired 3′-UTR set (slamdunk filter-b). Reads were quantified against said 3′-UTR annotation using featureCounts v1.5.0-p211 using stranded counting and counting multimapping reads (−M ˜s 1). […]"}},
  "note": "Positions count from the first letter of the chain named. “Also recorded” adds a separate entry of the source.",
  "data": [
    {"molecule": "B1", "values": [
      {"measurement": "growth compared to non-transduced cells in competitive co-culture", "setting": "RN2 (AML) cells", "result": "growth disadvantage; also recorded: adverse effect"},
      {"measurement": "growth compared to non-transduced cells in competitive co-culture", "setting": "RN2 (AML) cells; listed as ARTi.6634", "result": "considerable growth disadvantage"}
    ]},
    {"molecule": "B2", "values": [
      {"measurement": "percentage of shRNA expressing cells over time / toxicity", "setting": "[1]", "result": "no considerable toxicity"},
      {"measurement": "EGFR^del19::dsRed::ARTi protein levels", "setting": "EGFR^del19::dsRed::ARTi", "result": "reduction"},
      {"measurement": "transcriptional effects / responses (principal component analysis)", "setting": "[2]", "result": "only mild transcriptional responses"}
    ]},
    {"molecule": "B3", "values": [
      {"measurement": "percentage of shRNA expressing cells over time / toxicity", "setting": "[1]", "result": "no considerable toxicity"},
      {"measurement": "transcriptional effects / responses (principal component analysis)", "setting": "[2]", "result": "only mild transcriptional responses"}
    ]}
  ]
}
